For series [1], the target named is human CD133 (prominin-1) (human) (UniProt O43490). As to the kind of experiment: flow cytometry on RPMI 2650 cells, directly PE-conjugated antibody.
Series [2] deals with T1, CdtA-CdtC heterodimer (wild-type CdtA-His6 and CdtC-His6).
T1 chain 1: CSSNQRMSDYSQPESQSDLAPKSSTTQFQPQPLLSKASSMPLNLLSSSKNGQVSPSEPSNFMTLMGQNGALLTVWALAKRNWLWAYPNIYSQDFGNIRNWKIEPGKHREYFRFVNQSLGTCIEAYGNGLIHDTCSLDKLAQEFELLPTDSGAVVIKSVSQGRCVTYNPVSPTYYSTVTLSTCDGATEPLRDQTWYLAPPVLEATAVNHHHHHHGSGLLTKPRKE
T1 chain 2: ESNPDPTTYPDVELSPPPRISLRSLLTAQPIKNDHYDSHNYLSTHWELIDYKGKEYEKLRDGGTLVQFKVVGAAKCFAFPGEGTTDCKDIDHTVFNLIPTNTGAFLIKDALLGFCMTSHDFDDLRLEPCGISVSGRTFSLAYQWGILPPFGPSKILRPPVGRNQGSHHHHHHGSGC

Regarding “mouse anti-human CD133/1 MAb conjugated to PE (Miltenyi Biotec) (antibody)”, the median fluorescence (MF) in series [1] worked out at 64.8.

B1: CdtB/DNase I hybrid protein (from pETBDN2) (protein)
chain: NLSDFKVATWNLQGSSAVNESKWNINVRQLLSGEQGADILMVQEAGSLPSSAVRTSRVIQHGGTPIEEYTWNLGTRSRPNMVYIYYSRLDVGANRVNLAIVSRRQADEAFIVHSDSSVLQSRPAVGIRIGTDVFFTVHAAPGDAVAEIDALYDVYLDVQEKWGLEDVMLMGDFNAGCSYVRPSQWSSIRLWTSPTFQWLIPDSADTTATPTHCAYDRIVVAGMLLRGAVVPDSALPFNFQAANGLSDQLAQAISDHYPVEVMLKHHHHHHHMLEDPAANKAQKK
For the molecule B1, the “DNA nicking activity of reconstituted heterotrimer preparations” value in series [2] is “reconstituted heterotrimer preparations containing the CdtB/DNase I hybrid protein failed to convert supercoiled DNA to linear and relaxed forms”.

Source of the values: patent publication US20120027785A1.
